Target: Rabbit skeletal actin, filamentous (pre-formed actin filament) (rabbit) (UniProt P68135)
Assay: single-filament TIRF microscopy with microfluidics (kymographs); actin filaments tethered at one point through biotinylated spectrin-actin seeds on streptavidin/PLL-PEG-biotin coverslip, stained with 0.15 uM Alexa Fluor 488-phalloidin; AF647-Tpm1.1 flowed in at various concentrations (62.5, 250, 500 nM shown), then washed with buffer only for dissociation; buffer F (5 mM Tris pH 7.8, 100 mM KCl, 1 mM MgCl2, 0.2 mM ATP, 0.2 mM EGTA, 0.1 mM CaCl2, 10 mM DTT, 1 mg/mL BSA)

elongation rate of the Tpm1.1 strand on actin per feed concentration, towards the barbed end (nm s^-1 nM^-1): 0.88
elongation rate of the Tpm1.1 strand on actin per feed concentration, towards the pointed end (nm s^-1 nM^-1): 1.1
nucleation time tnuc (Kaplan-Meier estimate, filament of Fig 3C, 62.5 nM Tpm1.1): 1370 s
weighted average elongation rate on one filament, towards the barbed end: 136 nm/s
weighted average elongation rate on one filament, towards the pointed end: 104 nm/s
Substance: Murine tropomyosin isoform Tpm1.1, labelled with Alexa Fluor 647 at Cys-190 (natural protein)

Reference: PMC6287813
